Source: IntAct's records for PubMed 11854419

B1: COP9 signalosome complex subunit 1 (Arabidopsis thaliana (Mouse-ear cress)), P45432 (parent)
chain: MERDEEASGPMMEMCTNGGEETSNRRPIISGEPLDIEAYAALYKGRTKIMRLLFIANHCGGNHALQFDALRMAYDEIKKGENTQLFREVVNKIGNRLGEKYGMDLAWCEAVDRRAEQKKVKLENELSSYRTNLIKESIRMGYNDFGDFYYACGMLGDAFKNYIRTRDYCTTTKHIIHMCMNAILVSIEMGQFTHVTSYVNKAEQNPETLEPMVNAKLRCASGLAHLELKKYKLAARKFLDVNPELGNSYNEVIAPQDIATYGGLCALASFDRSELKQKVIDNINFRNFLELVPDVRELINDFYSSRYASCLEYLASLKSNLLLDIHLHDHVDTLYDQIRKKALIQYTLPFVSVDLSRMADAFKTSVSGLEKELEALITDNQIQARIDSHNKILYARHADQRNATFQKVLQMGNEFDRDVRAMLLRANLLKHEYHARSARKL
partner: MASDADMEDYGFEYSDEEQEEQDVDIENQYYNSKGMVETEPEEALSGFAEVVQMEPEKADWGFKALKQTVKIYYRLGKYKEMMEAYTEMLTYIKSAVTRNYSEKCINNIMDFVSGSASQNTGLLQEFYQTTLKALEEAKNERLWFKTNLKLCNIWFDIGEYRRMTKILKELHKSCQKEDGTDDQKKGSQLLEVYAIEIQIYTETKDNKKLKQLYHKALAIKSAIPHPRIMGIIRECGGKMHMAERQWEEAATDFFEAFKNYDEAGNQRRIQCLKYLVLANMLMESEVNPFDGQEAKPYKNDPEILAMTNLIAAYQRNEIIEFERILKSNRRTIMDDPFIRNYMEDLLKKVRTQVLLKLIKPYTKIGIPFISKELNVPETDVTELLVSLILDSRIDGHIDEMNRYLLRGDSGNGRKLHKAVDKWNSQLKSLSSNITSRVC
B2: COP9 signalosome complex subunit 1 (Arabidopsis thaliana (Mouse-ear cress)), P45432 (parent)
chain: B1 chain
partner: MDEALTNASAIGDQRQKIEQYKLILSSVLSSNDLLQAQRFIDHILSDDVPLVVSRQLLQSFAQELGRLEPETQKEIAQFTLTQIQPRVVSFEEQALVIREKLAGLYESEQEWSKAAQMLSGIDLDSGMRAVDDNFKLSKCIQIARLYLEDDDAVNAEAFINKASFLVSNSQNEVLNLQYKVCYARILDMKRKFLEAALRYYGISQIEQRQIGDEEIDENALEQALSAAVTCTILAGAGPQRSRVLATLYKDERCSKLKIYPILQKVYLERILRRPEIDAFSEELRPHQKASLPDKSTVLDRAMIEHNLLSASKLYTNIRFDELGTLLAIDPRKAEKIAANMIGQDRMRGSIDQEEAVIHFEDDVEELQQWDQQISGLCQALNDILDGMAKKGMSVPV

Variants of: B1
Details: with csn2_arath CSN2, Q8W207

| effect of a mutation on the interaction | Variant |
| --- | --- |
| disrupting interaction | G222R |

Variants of: B2
Details: with csn4_arath CSN4, Q8L5U0

| effect of a mutation on the interaction | Variant |
| --- | --- |
| disrupting interaction | G222R |
